# In publication PMC7707506, “The crystal structure of mouse IRG1 suggests that cis-aconitate decarboxylase has an open and closed conformation” (PLoS ONE, 2020):
# B1: full-length mouse IRG1 (immune responsive gene 1) (enzyme, Mus musculus (mouse), UniProt P54987 1-488, looked up)
# chain: MMLKSVTESFAGMIHGLKVNHLTDGIIRRSKRMILDSLGVGFLGTGTEVFHKVTQYSKIYSSNTSSTVWGRPDFRLPPTYAAFVNGVAVHSMDFDDTWHPATHPSGAVLPVLTALSEALPQIPKFSGLDLLLAFNVGIEVQGRLMHFSKEAKDIPKRFHPPSVVGTLGSAAAASKFLGLSLTKCREALAIAVSHAGAPIANAATQTKPLHIGNAAKHGMEATFLAMLGLQGNKQILDLGSGFGAFYANYSPEDLPSLDSHIWLLDQQDVAFKSFPAHLATHWVADAAAAVRKHLVTPERALFPADHIERIVLRIPDVQYVNRPFPDSEHEARHSFQYVACASLLDGSITVPSFHSQQVNRPQVRELLKKVKLEHPPDNPPSFDTLYCEISITLKDGTTFTERSDTFYGHWRKPLSQEDLRNKFRANASKMLCRDTVESLITVVEKLEDLEDCSVLTRLLKGPSVQDEASKLSSMSSFDHTTLPRFTNI
# notes: immune responsive gene 1 (IRG1, cis-aconitate decarboxylase), Mus musculus, NCBI NP_032418.1, full length, residues 1 to 488, cloned into pET21a (NdeI/XhoI); In the crystal, molecule A was modelled from residues 5 to 463 and molecule B from residues 4 to 460; the rest was not traceable; also called cis-aconitate decarboxylase; CAD; source: E. coli BL21 (DE3), purified (Ni-NTA, SEC); not shown: …
# Molecular target: the molecule itself
# Test: SEC-MALS; Superdex 200 10/300, 20 mM Tris-HCl pH 8.0, 150 mM NaCl, 0.4 mL/min, 25°C; BSA as the reference
protein,measurement,value
B1,stoichiometry N,2
